Results reported in the nanobody polyreactivity screen of Harvey et al. (2022).

test: yeast display, Sf9 membrane polyspecificity reagent, FACS + sequencing; frameworks hold sequencing errors
Outline: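 Polyreactivity labels are assigned by the sorting gate from which each nanobody was recovered. The gates were low and high (top ~1%), set on anti-HA fluorescence for expression and streptavidin fluorescence for reagent binding. Before sorting, galactose-induced (36–48 hours) yeast display cells were stained for 1 hour at 4 °C with 10% biotinylated, detergent-solubilized Sf9 membrane reagent.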

| Sequence | polyreactivity (PSR sort gate) |
| --- | --- |
| QVQLVESGGGLVQAGGSLRLSCAASGNIFGLNSMGWYRQAPGIDRELVSAISKSGGSTFYADSVKGRFKISRDNAKNTVYLQMNSLKPEDTAVYYCAARWNGARPNHTYGYWGQGTQVTVSS | high polyreactivity |
| QVQLVESGGGLVQAGGSLRLSCAASGNIFGSYAMGWYRQAPGKERELVAAIRTSGGSTYYADSVKGRFTISRDNAKNTVYLQMNSLKPEDTAVYYCATRSRTTKIVRWPGMYYWGQGTQVTVSS | high polyreactivity |
| QVQLVESGGGLVQAGGSLRLSCAASGNIFGVDAMGWYRQAPGKERELVATITTGGSTYYADSVKGRFTISRDNAKNTVYLQMNSLKPADTAVYYCAADVGGGNYVYYGNDYDDGYWGQGTQVTVSS | low polyreactivity |
| QVQLVESGGGLVQAGGSLRLSCAASGNIFHDNAMGWYREAPGKERELVAAISDSGGSTYYADSVKGRFTISRDNAKNTVYFQMNSLQPEDTAVYYCDSGRTYYAPYQWWYDYWGQGTQVTVSS | high polyreactivity |
| QVQLVESGGGLVQAGGSLRLSCAASGNIFHKNAMGWYSQAPGKERELVASISWSGGSTYYADSVKGRFTISRDNAKNTVYLQMKSLKPEDTAVYYCATDAFGYPGNRYALNDYWGQGTQVTVSS | low polyreactivity |
| QVQLVESGGGLVQAGGSLRLSCAASGNIFIKNAMGWYRQAPGKERELVAAISFSGGSTYYADSVKGRFTISRDNAKNTVYLQMNSLKPEDTAVYYCNAVRRQARQYDYWGQGTQVTVSS | high polyreactivity |
| QVQLVESGGGLVQAGGSLRLSCAASGNIFIYNAMGWNRQAPGKERELVAAISVSGGDTYYADSVKGRFTISRDNAKYTVYLQLNSLKPEDTAVYYCAAEAEYIELDYWGQGTQVTVSS | low polyreactivity |
| QVQLVESGGGLVQAGGSLRLSCAASGNIFPAYAMGWYRQAPGKERELVAAISKSGGRTYYAESVKGRFTISRDNAKNTVYLQMNSLKQEDTAVYYALLTVRRAVPYSVRYDYWGQGTQVTVSS | high polyreactivity |
| QVQLVESGGGLVQAGGSLRLSCAASGNIFPIYPMGWYRQAPGKERELVASIYRGGTTYYADSVKGRFTISRDNAKNTVYLQMNSLKPEETAVYYCAVYSPRLRRVHTRGYWGQGTQVTVSS | high polyreactivity |
| QVQLVESGGGLVQAGGSLRLSCAASGNIFPPNTMGWYRQAPGKERELVAVITWSDGGTYADSVKGRFTISRDNAKNTVYLQMNSLKPEDSAVYYCNADYYFAAPKGEYTAWYDYWGQGTQVTVSS | low polyreactivity |
| QVQLVESGGGLVQAGGSLRLSCAASGNIFPPYAMGWYRQAPGKERELVAAITRSGASTYYADSVKGRFTISRDNAKNTVYLQMNSLKPEDTAVYYCAVGVPGGYWKYYYWGQGTQVTVSS | high polyreactivity |
| QVQLVESGGGLVQAGGSLRLSCAASGNIFPWYAMGWYRQAPGKERELVASITVSGGRTYYADSVKGRFTISRDNAKNTVYLQMNSLKPEDTAVYYCNKYLVWYVPGAYNSWGQGTQVTVSS | high polyreactivity |
| QVQLVESGGGLVQAGGSLRLSCAASGNIFPYYPMGWYRQAPGKERELVASISRSGGSTYYADSVKGRFTISRDNAKNTVYLQMNSLKPEDTAVYYCAKRTPYYGFGFFHPARGYGYWGQGTQVTVSS | low polyreactivity |
| QVQLVESGGGLVQAGGSLRLSCAASGNIFRGYTMGWSRQAPGKERELVAAISYSGGSTYADSVKGRFTISRDNAKNTVYLQMNSLKPEDTAVYYCNTDTSVDVRFDYWGQGTQVTVSS | low polyreactivity |
| QVQLVESGGGLVQAGGSLRLSCAASGNIFRPYTMGWYRQAPGKERELVARISSGGSTNYADSVKGRFTISRDNAKNTVYLQMNSLKPEDTAVYYCNTVFRGSSTRGYDYWGQGTQVTVSS | high polyreactivity |
| QVQLVESGGGLVQAGGSLRLSCAASGNIFRRYAMGWYRQAPGKERELVAAISISGGNTYYADSVKGRFTISRDNAKNTVYLQMNSLKPEDTAVYYCNAVGRYSEYGYWGQGTQVTVSS | high polyreactivity |
| QVQLVESGGGLVQAGGSLRLSCAASGNIFRYYTMGWYRQAPGKERELVATISYADSVKGRFTISRDNAKNTVYLQMNSLKPEDTAVYYCKADFAPWDKQDYPYDYDYWGQGTQVTVSS | low polyreactivity |
